Data as given in patent publication US20230250154A1 (CYTONICS, published 2023).

What was measured:
Assay in all cases: cell-based or functional assay
[1] = biological target: Elastase
[2] = biological target: T1, Cathepsin G (UniProt P08311 21-244)
T1 sequence (looked up): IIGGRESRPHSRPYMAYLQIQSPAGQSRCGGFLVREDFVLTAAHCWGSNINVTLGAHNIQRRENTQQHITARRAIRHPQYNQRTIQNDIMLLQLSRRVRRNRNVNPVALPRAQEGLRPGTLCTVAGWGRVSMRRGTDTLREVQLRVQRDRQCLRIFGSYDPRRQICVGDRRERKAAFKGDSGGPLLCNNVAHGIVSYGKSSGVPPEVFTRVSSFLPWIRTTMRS

[3] = biological target: T2, MMP1 (human, UniProt P03956 100-469, limits assumed)
T2 sequence (looked up): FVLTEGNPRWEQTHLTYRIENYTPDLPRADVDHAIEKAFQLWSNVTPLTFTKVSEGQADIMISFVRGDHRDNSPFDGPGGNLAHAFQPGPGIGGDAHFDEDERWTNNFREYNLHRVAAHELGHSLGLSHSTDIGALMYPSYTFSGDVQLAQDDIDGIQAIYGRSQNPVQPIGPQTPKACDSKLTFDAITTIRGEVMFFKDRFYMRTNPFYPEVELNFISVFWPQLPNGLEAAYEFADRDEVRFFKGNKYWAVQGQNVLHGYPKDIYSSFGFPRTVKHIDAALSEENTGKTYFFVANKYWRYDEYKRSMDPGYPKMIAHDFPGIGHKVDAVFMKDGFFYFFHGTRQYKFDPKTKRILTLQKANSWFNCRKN

[4] = biological target: T3, MMP2 (human, UniProt P08253 110-660, limits assumed)
T3 sequence (looked up): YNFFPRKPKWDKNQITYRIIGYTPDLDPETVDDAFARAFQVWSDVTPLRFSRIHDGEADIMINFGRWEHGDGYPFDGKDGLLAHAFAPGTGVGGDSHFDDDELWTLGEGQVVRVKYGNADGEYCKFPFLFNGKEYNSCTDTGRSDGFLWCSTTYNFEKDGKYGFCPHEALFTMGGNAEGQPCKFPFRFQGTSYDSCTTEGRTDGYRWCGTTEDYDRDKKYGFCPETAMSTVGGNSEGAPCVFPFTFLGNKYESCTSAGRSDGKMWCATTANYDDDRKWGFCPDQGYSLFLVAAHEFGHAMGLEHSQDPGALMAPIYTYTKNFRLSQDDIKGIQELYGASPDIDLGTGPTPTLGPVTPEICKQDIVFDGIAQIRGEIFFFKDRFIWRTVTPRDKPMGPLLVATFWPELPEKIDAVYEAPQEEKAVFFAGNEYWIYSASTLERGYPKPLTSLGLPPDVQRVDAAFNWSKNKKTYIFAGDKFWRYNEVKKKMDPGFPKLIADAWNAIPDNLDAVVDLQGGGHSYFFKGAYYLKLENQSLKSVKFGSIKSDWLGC

B1: Variant A2M, bait region SEQ ID NO 128 (other)
chain: SVSGKPQYMVLVPSLLHTETTEKGCVLLSYLNETVTVSASLESVRGNRSLFTDLEAENDVLHCVAFAVPKSSSNEEVMFLTVQVKGPTQEFKKRTTVMVKNEDSLVFVQTDKSIYKPGQTVKFRVVSMDENFHPLNELIPLVYIQDPKGNRIAQWQSFQLEGGLKQFSFPLSSEPFQGSYKVVVQKKSGGRTEHPFTVEEFVLPKFEVQVTVPKIITILEEEMNVSVCGLYTYGKPVPGHVTVSICRKYSDASDCHGEDSQAFCEKFSGQLNSHGCFYQQVKTKVFQLKRKEYEMKLHTEAQIQEEGTVVELTGRQSSEITRTITKLSFVKVDSHFRQGIPFFGQVRLVDGKGVPIPNKVIFIRGNEANYYSNATTDEHGLVQFSINTTNVMGTSLTVRVNYKDRSPCYGYQWVSEEHEEAHHTAYLVFSPSKSFVHLEPMSHELPCGHTQTVQAHYILNGGTLLGLKKLSFYYLIMAKGGIVRTGTHGLLVKQEDMKGHFSISIPVKSDIAPVARLLIYAVLPTGDVIGDSAKYDVENCLANKVDLSFSPSQSLPASHAHLRVTAAPQSVCALRAVDQSVLLMKPDAELSASSVYNLLPEKDLTGFPGPLNDQDDEDCINRHNVYINGITYTPVSSTNEKDMYSFLEDMGLKAFTNSKIRKPKMCPQLEQYEMHGPSELEGRGSEAIPMSIPTKEEEGLGSIPENFFGVVEEPHTKLRKYFPETWIWDLVVVNSAGVAEVGVTVPDTITEWKAGAFCLSEDAGLGISSTASLRAFQPFFVELTMPYSVIRGEAFTLKATVLNYLPKCIRVSVQLEASPAFLAVPVEKEQAPHCICANGRQTVSWAVTPKSLGNVNFTVSAEALESQELCGTEVPSVPEHGRKDTVIKPLLVEPEGLEKETTFNSLLCPSGGEVSEELSLKLPPNVVEESARASVSVLGDILGSAMQNTQNLLQMPYGCGEQNMVLFAPNIYVLDYLNETQQLTPEIKSKAIGYLNTGYQRQLNYKHYDGSYSTFGERYGRNQGNTWLTAFVLKTFAQARAYIFIDEAHITQALIWLSQRQKDNGCFRSSGSLLNNAIKGGVEDEVTLSAYITIALLEIPLTVTHPVVRNALFCLESAWKTAQEGDHGSHVYTKALLAYAFALAGNQDKRKEVLKSLNEEAVKKDNSVHWERPQKPKAPVGHFYEPQAPSAEVEMTSYVLLAYLTAQPAPTSEDLTSATNIVKWITKQQNAQGGFSSTQDTVVALHALSKYGAATFTRTGKAAQVTIQSSGTFSSKFQVDNNNRLLLQQVSLPELPGEYSMKVTGEGCVYLQTSLKYNILPEKEEFPFALGVQTLPQTCDEPKAHTSFQISLSVSYTGSRSASNMAIVDVKMVSGFIPLKPTVKMLERSNHVSRTEVSSNHVLIYLDKVSNQTLSLFFTVLQDVPVRDLKPAIVKVYDYYETDEFAIAEYNAPCSKDLGNADYKDDDDKGASHHHHHH
Protease Inhibition (% of WT) [1]: 100 % of WT | Protease Inhibition (% of WT) [2]: 225 % of WT | Protease Inhibition (% of WT) [3]: 400 % of WT | Protease Inhibition (% of WT) [4]: 20 % of WT
